From US20260097113A1 (Pfizer, published 2026)

T1: RSV F protein of subtype A comprising a polypeptide of SEQ ID NO: 1 and a polypeptide of SEQ ID NO: 2 (RSV subtype A, UniProt P11209 137-513; P03420 26-109)
T1 construct: Stabilized prefusion F trimer made of three F2-F1 heterodimers; Produced recombinantly in CHO cells; also called RSV A; RSVA
T1 chain 1: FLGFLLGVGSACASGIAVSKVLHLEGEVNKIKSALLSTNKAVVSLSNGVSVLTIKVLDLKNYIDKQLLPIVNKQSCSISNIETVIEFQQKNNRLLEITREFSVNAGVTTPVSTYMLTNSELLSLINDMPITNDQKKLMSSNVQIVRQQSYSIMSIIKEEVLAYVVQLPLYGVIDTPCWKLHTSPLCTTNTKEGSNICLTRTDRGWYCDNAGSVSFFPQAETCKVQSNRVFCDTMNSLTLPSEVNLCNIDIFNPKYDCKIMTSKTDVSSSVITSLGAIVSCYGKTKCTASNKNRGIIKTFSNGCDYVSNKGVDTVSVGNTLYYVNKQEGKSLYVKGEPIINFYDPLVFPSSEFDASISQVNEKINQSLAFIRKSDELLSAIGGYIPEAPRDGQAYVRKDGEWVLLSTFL
T1 chain 2: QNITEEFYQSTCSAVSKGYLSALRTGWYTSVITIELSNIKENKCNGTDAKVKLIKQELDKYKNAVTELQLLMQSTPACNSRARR

B1: AM14 (trimeric prefusion specific antibody of the AM14 ELISA) (antibody, V domains shown)
VH: EVQLVESGGGVVQPGRSLRLSCAASGFSFSHYAMHWVRQAPGKGLEWVAVISYDGENTYYADSVKGRFSISRDNSKNTVSLQMNSLRPEDTALYYCARDRIVDDYYYYGMDVWGQGATVTVSS
VL: DIQMTQSPSSLSASVGDRVTITCQASQDIKKYLNWYHQKPGKVPELLMHDASNLETGVPSRFSGRGSGTDFTLTISSLQPEDIGTYYCQQYDNLPPLTFGGGTKVEIKR
notes: Antibody as used in the AM14 ELISA, detected with an HRP-labeled secondary antibody

What was measured:
[1] = molecular target: RSV A + RSV B bivalent composition (RSV subtype A; RSV subtype B); experiment: AM14 Fab titration by SEC; Low-Fast cycle; 1 M 25°C (second value)
[2] = molecular target: RSV A + RSV B bivalent composition (RSV subtype A; RSV subtype B); experiment: AM14 Fab titration by SEC; High-Slow 2 cycle; 1 M 2-8°C
[3] = molecular target: RSV A + RSV B bivalent composition (RSV subtype A; RSV subtype B); experiment: AM14 Fab titration by SEC; High-Slow 2 cycle; 1 M 40°C
[4] = molecular target: RSV A + RSV B bivalent composition (RSV subtype A; RSV subtype B); experiment: AM14 Fab titration by SEC; High-Slow 1 cycle; 1 M 2-8°C (second value)
[5] = molecular target: RSV A + RSV B bivalent composition (RSV subtype A; RSV subtype B); experiment: AM14 Fab titration by SEC; Target cycle; T0 (second value)
[6] = molecular target: T1, RSV F protein of subtype A comprising a …; experiment: AM14 ELISA; F14 (pH 7, 50 mM NaCl, 4.5% sucrose); T0
[7] = molecular target: T1, RSV F protein of subtype A comprising a …; experiment: AM14 ELISA; F13 (pH 7, 100 mM NaCl, 4.5% sucrose); 1 wk 5°C
[8] = molecular target: T1, RSV F protein of subtype A comprising a …; experiment: AM14 ELISA; F14 (pH 7, 50 mM NaCl, 4.5% sucrose); 1 wk 5°C
[9] = molecular target: T1, RSV F protein of subtype A comprising a …; experiment: AM14 ELISA; F7 (pH 6, 100 mM NaCl, 0% sucrose); T0
[10] = molecular target: T1, RSV F protein of subtype A comprising a …; experiment: AM14 ELISA; F5 (pH 6, 100 mM NaCl, 9.0% sucrose); 1 wk 25°C
[11] = molecular target: T1, RSV F protein of subtype A comprising a …; experiment: AM14 ELISA; F6 (pH 7, 0 mM NaCl, 4.5% sucrose); T0
[12] = molecular target: T1, RSV F protein of subtype A comprising a …; experiment: AM14 ELISA; F16 (pH 6, 0 mM NaCl, 0% sucrose); 2 wk 25°C
[13] = molecular target: T1, RSV F protein of subtype A comprising a …; experiment: AM14 ELISA; F1 (pH 8, 100 mM NaCl, 0% sucrose); 1 wk 25°C
[14] = molecular target: T1, RSV F protein of subtype A comprising a …; experiment: AM14 ELISA; F4 (pH 6, 50 mM NaCl, 4.5% sucrose); 1 wk 25°C
[15] = molecular target: T1, RSV F protein of subtype A comprising a …; experiment: AM14 ELISA; F19 (pH 7, 50 mM NaCl, 3% trehalose + 3% mannitol); 2 wk 25°C
[16] = molecular target: T1, RSV F protein of subtype A comprising a …; experiment: AM14 ELISA; F6 (pH 7, 0 mM NaCl, 4.5% sucrose); 2 wk 5°C

Molecule | Prefusion Content (%) [1] [%] | Prefusion Content (%) [2] [%] | Prefusion Content (%) [3] [%] | Prefusion Content (%) [4] [%] | Prefusion Content (%) [5] [%] | AM14 prefusion content (%), relative to standard [6] [%] | AM14 prefusion content (%), relative to standard [7] [%] | AM14 prefusion content (%), relative to standard [8] [%] | AM14 prefusion content (%), relative to standard [9] [%] | AM14 prefusion content (%), relative to standard [10] [%] | AM14 prefusion content (%), relative to standard [11] [%] | AM14 prefusion content (%), relative to standard [12] [%] | AM14 prefusion content (%), relative to standard [13] [%] | AM14 prefusion content (%), relative to standard [14] [%] | AM14 prefusion content (%), relative to standard [15] [%] | AM14 prefusion content (%), relative to standard [16] [%]
AM14 Fab | 71 | 68 | 52 | 44 | 77 | – | – | – | – | – | – | – | – | – | – | –
B1 | – | – | – | – | – | 102 | 76 | 85 | 88 | 97 | 99 | 76 | 112 | 59 | 84 | 77
